Laboratory results reported in the DeepSol protein solubility set.

experiment: soluble on expression in E. coli; label from the status in PepcDB or PDB records

Sequence	soluble on expression in E. coli
MSLTTAHNIDLPTVLAERLTTAHPDVLRELLATFIHTLMGAEADALCGAGYGERSTERTNSRNGYRHRQFDTRAGSLDLAIPKLRHGSYFPDWLLERRKRAERALTTVVATCYLLGVSTRRMDKLVETLGITSLSKSQVSVMAKELDAAVEAFRTRPLDAGPYTFVAADALVLKVREGGRVVNVHALIAVGVNAEGHREILGIDVSTAEDGAGWLTFWRSLTARGLSGVKLVTSDAHAGLVAAIGATLPGAAWQRCRTHYTTNLMAVTPKSSWPWVRTLLHSVFDQPDAESVAAQYDRIIEALADKLPKVADHLEEARADLLAFTAFPKQIWRQIWSNNPLSVNRPSGDTVQAAAEGHHHHHH	soluble
MAHHHHHHMKDKLRAMGHPAMDAADREDSHAGCFSDSVGMQTYSLNTSLGAMHIMSRLNNEMSFVEDTASGSFGVVKKGVLDLDRQCYAVKQTKRVISGEGDLQQRLQEVYTLSACSHPNVLRYFDGWVEDRAVFVRTEWLSDGSVADFDRPFSEALLRSVIHQIASALHWLLCHHITHRDVKPENILARKMEDGTYTFKLADFGLARPLFRDRPNTGEEFRGTNDDDGDRRYLSPEAFAISEFSQQKGEADVYALGASCVELMGGDPSLVRNGCYTGNFHIYSAELQNLVQWMTRLDPQERPDAFMVALLTVDPALKSTRGFARRMAAIEGLRASVAELEKKVAETNATEKEEGGA	soluble
MGSDKIHHHHHHAAIPISVTKGPDGIKIHCLNSANNPLLGSPAYKNVRIVELEKVPFFQRINNIRKLEMNDDYLFVQTSEKLYTYTLNGELMAEIGRKGEREDDYSELSTFYIDNKKKQITIIDGVQNKLINYNFWGNYMFTDTISEGAFKWCYQTLLINNNQLLNYHGMSMDNTEPYSLFDLTKKEVIKRYFSYQPITLGNYVYPFSWHPMTRADKDIDVIMPLCDTVYTYSAASSSFQPKYIIEMTQKMAPKNKIRKNTPSYSGDLLKLDQQGYFTGFDGIYETDTKILLQYMYGITLGYFLFDKYTKTGSFYLYSQNDKGKTFPFNVIVHSYKNEFVAFGKGKELRSLTHIKDKKVREKIESLGDNSACLIFYELE	not soluble
MSLINDLRTVPAALDRLVRQLPDHTALIAEDRRFTSTELRDAVYGAAAALIALGVEPADRVAIWSPNTWHWVVACLAIHHAGAAVVPLNTRYTATEATDILDRAGAPVLFAAGLFLGADRAAGLDRAALPALRHVVRVPVEADDGTWDEFIATGAGALDAVAARAAAVAPQDVSDILFTSGTTGRSKGVLCAHRQSLSASASWAANGKITSDDRYLCINPFFHNFGYKAGILACLQTGATLIPHVTFDPLHALRAIERHRITVLPGPPTIYQSLLDHPARKDFDLSSLRFAVTGAATVPVVLVERMQSELDIDIVLTAYGLTEANGMGTMCRPEDDAVTVATTCGRPFADFELRIADDGEVLLRGPNVMVGYLDDTEATAAAIDADGWLHTGDIGAVDQAGNLRITDRLKDMYICGGFNVYPAEVEQVLARMDGVADAAVIGVPDQRLGEVGRAFVVARPGTGLDEASVIAYTREHLANFKTPRSVRFVDVLPRNAAGKVSKPQLRELGEGHHHHHH	not soluble
SMKLKSNQTRTYDGDGYKKRAACLCFRNDTEQEVLLVSSSRHPDKWIVPGGGMEPEEEPNVAAAREVCEEAGVKGTLGRLVGIFENRDRKHRTYVYVLIVTEVLEDWEDSVNIGRKREWFKIDDAIQVLQCHKPVQASYFTALQEGCLNSNGTPLVATIGGGDLSPTYSINQSSVSDMR	soluble
MGSDKIHHHHHHMRMERVVERVAVTGAEAVANAMRQIEPDVVAAYPITPQTPIVEYFARFVADGVVRTEMIPVESEHSAMSAVVGAAAAGARAMTATSANGLALMHEIVYIAASYRLPIVMPVVNRALSGPINIHCDHSDAMAERDSGWIQLFAETNQEAYDFTILAVRLAEHEDVRLPVMVNLDGFILSHGVEPVEFYPDELVKKFVGELKPMYPLLDTEHPVTWGPLDLYDYYFEHKRQQIEAMENVKKVFPEIAKEFEETFGRKYWFVEPYRMEDAEHVMVALGSTNSTIKYVVDELREEGYKVGSLKIWMFRPFPKEQLQELLNGRKSVVVLDRAVSFGAEAPLYEAVKSALYEVAARPMLGSYVYGLGGRDIKPEHIRKAFEDAINGNLIADEQRYLGLRE	not soluble
MAHHHHHHMNNTNIVTFSPKLKYSINDVVHRDREVKEYHLQIDREASDILFFCTIKPKQVSELLEGEVKINLKREVGEQYSVASEDGTHVCDFSKGNLNISPSAGFNYKHDRSVSCIYLVIPNKLFLIKLPKLNIVTEQFLPNLVSCLSEYSFINFNLKHVEESDDSISLHLSFGDFKKNFNVSCAFDLSEYAVEPCSLGKKGIVTFYFNA	not soluble
MPLALGGTPFEKHVWARLMEIPLGQTRAYGDLAREMERPEVVRAVGRANGANQLAIVVPCHRILGADGSLTGYGGGLWRKQWLLRHEEKIGTETRMEETALEHHHHHH	not soluble
MGSDKIHHHHHHMRLEELVNNNYNKLNENDLHIWKYICCNKRECCTISIDELAKKCNISRTTISRFTQKLSLEGFGEFKVRLKLELGVSNNFKSSSVEDVYQDYYKTIKDMKEKDFLEICRMIYGAKHLFVYGTGAVQIAAANELKRHFISVNKFFVTVHGEAEMNMVLETATDEDLIVIISLSGEKKSAVEYLKKVKVKNIPSISITKLSDNSIARLCDENLYIITRNIKIEGVVTCENVGQYFILIEILFLKYITYLGQLKKEDTIS	not soluble
METRAAENTAIFMCKCCNLFSPNQSELLSHVSEKHMEEGVNVDEIIIPLRPLSTPEPPNSSKTRDEFLVMKRKRGRPKGSTKKSSTEEELAENIVSPTEDSPLAPEEGNSLPPSSLECSKCCRKFSNTRQLRKHICIIVLNLGEEEGEAGNESDLELEKKCKEDDREKASKRPRSQKTEKVQKISGKEARQLSGAKKPIISVVLTAHEAIPGATKIVPVEAGPPETGATNSETTSADLVPRRGYQEYAIQQTPYEQPMKSSRLGPTQLKIFTCEYCNKVFKFKHSLQAHLRIHTNEKPYKCPQCSYASAIKANLNVHLRKHTGEKFACDYCSFTCLSKGHLKVHIERVHKKIKQHCRFCKKKYSDVKNLIKHIRDAHDPQDKKVKEALDELCLMTREGKRQLLYDCHICERKFKNELDRDRHMLVHGDKWPFACELCGHGATKYQALELHVRKHPFVYVCAVCRKKFVSSIRLRTHIKEVHGAAQEALVFTSSINQSFCLLEPGGDIQQEALGDQLQLVEEEFALQGVNALKEEACPGDTQLEEGRKEPEAPGEMPAPAVHLASPQAESTALPPCELETTVVSSSDLHSQEVVSDDFLLKNDTSSAEAHAAPEKPPDMQHRSSVQTQGEVITLLLSKAQSAGSDQESHGAQSPLGEGQNMAVLSAGDPDPSRCLRSNPAEASDLLPPVAGGGDTITHQPDSCKAAPEHRSGITAFMKVLNSLQKKQMNTSLCERIRKVYGDLECEYCGKLFWYQVHFDMHVRTHTREHLYYCSQCHYSSITKNCLKRHVIQKHSNILLKCPTDGCDYSTPDKYKLQAHLKVHTALDKRSYSCPVCEKSFSEDRLIKSHIKTNHPEVSMSTISEVLGRRVQLKGLIGKRAMKCPYCDFYFMKNGSDLQRHIWAHEGVKPFKCSLCEYATRSKSNLKAHMNRHSTEKTHLCDMCGKKFKSKGTLKSHKLLHTADGKQFKCTVCDYTAAQKPQLLRHMEQHVSFKPFRCAHCHYSCNISGSLKRHYNRKHPNEEYANVGTGELAAEVLIQQGGLKCPVCSFVYGTKWEFNRHLKNKHGLKVVEIDGDPKWETATEAPEEPSTQYLHITEAEEDVQGTQAAVAALQDLRYTSESGDRLDPTAVNILQQIIELGAETHDATALASVVAMAPGTVTVVKQVTEEEPSSNHTVMIQETVQQASVELAEQHHLVVSSDDVEGIETVTVYTQGGEASEFIVYVQEAMQPVEEQAVEQPAQEL	soluble
MTIKTGNIRTNSLAEIYRNSPVFQNLRNPDKYKGKCGVCEFRYVCGGSRSRAYAMTGGLYGKMAGDPLEHHHHHH	not soluble
MIKRNLLVIGLAVMLSACGFQLRGTGATELSVKEMDVSARNAYGPTVLQLREVLERSGVNVHAGAPYRLVLTNEQERERSATYNSGNRTAEYELTTKLDYSILGLNNLELMSDKLEVRKVYVRDGSNITGSEQEAKRAREEMRRDLVNAMVVRLQMLSPPQLDELQRKADERAQAEAAALEAARRQQAETPQQSPLEVPGN	not soluble
MSLILASLVRYYRRLATETDETGNPKVPSYGFSEEKIGWILVLDKEGRLKTVVPNLTADKKPQPKLMSVPRPEKRTSGIKPNFLWDKTAYALGVEANKNKAEAKEKPFTPSEKTFEAFKQYHLDLLQNSEDEGLQALCRFLQNWQPAHFAAENLPAEMLDSNTAFSLEKPTALIHKREAAQTLWAGCLKSDEALESLCLISGDTAPIARLHPAIKGVFGGQSSGGSIISFNKEAFSSFGKEQGANAPVSEQSAFAYTTALNYLLRRENNHCLTIGDASTVFWAEADDIVDEGHHHHHH	not soluble
MKILVAVKQTAALEEDFEIREDGMDVDEDFMMYDLNEWDDFSLEEAMKIKESSDTDVEVVVVSVGPDRVDESLRKCLAKGADRAVRVWDDAAEGSDAIVVGRILTEVIKKEAPDMVFAGVQSSDQAYASTGISVASYLNWPHAAVVADLQYKPGDNKAVIRRELEGGMLQEVEINCPAVLTIQLGINKPRYASLRGIKQAATKPIEEVSLADIGLSANDVGAAQSMSRVRRMYIPEKGRATMIEGTISEQAAKIIQIINEFKGA	soluble
MDPTQISHLALDIGGTLIKLVYFSANGDYSEESRNGCSVVKGRLCFAKFETRKIDDCLEFIRFNILHHSEVTIQVYSNRMAKATGGGAFKFADLFKEKLGILFDKEDEMCSLVGGVNFLLKTVPREAFTYLDGQKKFVEIDHNDLYPYLLVNIGSGVSMIKVDGDGKYERISGTSLGGGTFLGLGKLLTKCKSFDELLELSHHGNNRVIDMLVGDIYGGTDYSKIGLSSTAIASSFGKAISDGKELEDYQPEDVARSLLRMISNNIGQIAYLNALRFGLKRIFFGGFFIRGLEYTMDTISVAVHFWSRGEAKAMFLRHEGFLGALGAFTSYNDQSHNDLKPHHHTVQRAILNCSGHNFRHIPVTSNLNESETIECSINLV	soluble
MGSDKIHHHHHHMEELRSGSSVCRVSRRGAFVSSLRISNMEILKRSSDRYATHGGMAILIPYADIVSDGTYTWHGRRYQLPRNAGYEGNFTDSIHGLVKSAYFSIIYKDVDSILLKYALERSGYPSRLNIYVNYAVQHDSLGTVISVENTGNNEAPLVCGSHPYFLYRDFWFIKFSNSAVRLFSGGDLSLRKDESVNFLTKKIEGYYDDSFYSDGMILLVSSDRMIELDRRSMPYFEVYDGKYAERRSLAVEPMTGAPNAYNNKIGLIDLKPGETFLCGFDIRVASI	not soluble
MSGNPGSSLSALRPTPPERGSFPLDHDGECTKYMQEYLKCMQLVQNENAMNCRLLAKDYLRCRMDHQLMDYDEWSHLGLPEDAPGNNGKTIKDATDNK	not soluble
MSLEDSKASLETRNFYMNRDFRDGPGQSKREEWAQGFILNLQSGYTQGTVGFGLDAMGMLGVKLDSGRGRSGTGLLPKDSDGRAPDTYSKLGLTAKVKVSQSELKVGTLIPKLPSVQPNNGRIFPQIFEGALLTSKEIKDLGFTAGRLEKTKIRDSSDSEDLALNDKNGRFAGVSADHFDLGGLDYKLTDQLTASYHYSNLQDVYRQHFVGLLHSWPIGPGELTSDLRFARSTDSGSAKAGGIDNKSLNGMFTYSLGNHAFGAAWQRMNGDDAFPYLEGSNPYLVNFVQVNDFAGPKERSWQLRYDYDFVGLGIPGLTFMTRYVKGDNVELAGQSGEGREWERNTELQYVFQSGALKNLGIRWRNATFRSNFTRDIDENRLIVSYTLPIWEGHHHHHH	soluble
SLRKIANSITEPIEQLVTAMKSVQHSGIEAGVSLSLPEHTQDEAGMLNRHFTVMMKRINELMEENVEKQLIIKETELKALQAQINPHFLYNTLESINWLAKANQQKQISKMVESLGFLLRNSIHMKKDIVTIQEEADIVRHYMTIQRFRFEERLKFTLDIDDEVKHCLIPKLTLQPLAENAIQYALEPFTRPCAIRIQAKKAKGCVCITVEDNGPGMDGRILESTGGRGIGLWNIRERISLTFGEPYGLRIHSEHEKGTRIVITIPCRNEVV	soluble
